B1: TPR t1 (parent)
chain: GACCAAUCUGCCCUCAGAGCUCGAGAACAUCUUCGGAUGCAGAGGAGGCAGGCUUCGGUGGCGCGAUAGCGCCAACGUCCUCAACCUCCAAUGCAUCCCACCACAUGAUGAUGCCUGAAGAGCCUUGGUUUUUUG

Variants of: B1
Assay: polymerase ribozyme fitness, log enrichment relative to wild type (log ratio); higher = more active; in vitro selection for triplet polymerase activity
Method in brief: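 Streptavidin-bead capture of gel-excised extended constructs, followed by RT-PCR, closed a single triplicate in vitro selection round. That round began by annealing PCR-built, transcribed mutant libraries of each subunit of a heterodimeric triplet polymerase ribozyme with a biotinylated primer, the partner subunit and triplets, then incubating them frozen at −7 °C. After Illumina sequencing of inputs and outputs, genotypes needed ≥10 input reads and ≥1 read per output. Fitness is the base-2 logarithm of genotype enrichment over wild-type enrichment, using inverse-variance-weighted replicate averages.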
With GACCAAUCUGCCCUCAGAGCUCGAGAACAUCUUCGGAUGCAGAGGAGGCAGGCUUCGGUGGCCCGAUAGCUCCAACGUCCUCAACCUCCAAUGCAACCCUCCACAUGAUGAUGCCUUAAGAGCCUUGGUUUUUGG the “polymerase ribozyme fitness (log ratio)” value was -5.35.
In the case of GACCAAUCUGCUCUCAGAGCUCGAGAACAUCUUCGGAUGGAGAGGAGGCAGGCUUCGGUGGCGCGAUAGCGGCAACGUCCUCAACCUCCAAUGCAUCCCACCACAUGAUGAUGCCUGAAGAGCCUUGGUUUUUUG, the “polymerase ribozyme fitness (log ratio)” value is reported as -1.36.
With GACCAUACUGCCCUCCGAGCUCGAGAACAUCUUCGGAUGCAGAGGUGGCAGGCUUCGGUGGCGCGAUAGCGCCAAAGUCCUCACCCUCCAAUGCAUCCCCCCACAUGAUGAUGCCUGAAGAGCAUUGGUUUUUUG the “polymerase ribozyme fitness (log ratio)” value was -5.09.
With GACCAAUCUGCCCUCAGAGCUCGAGAACAUCUUCGGAUGCAGAGGAGGCCGGCUUCGGUCGCGCGAUAGCGCCAACGUCCUCAACCUCCAAUGCAUCCCACCACAUGAUGAUGCCUGAAGAGCCUUGGUUUUUUG the “polymerase ribozyme fitness (log ratio)” value was -1.73.
For GACCAAUCUGCCCUCAGAGCUCGAGAACAUCUUCGGAUGCAGAGGAGGCAGGCUUCGGUGGCGCGAUAGCGCCAAUGUCCUCAACCUCCAAUGCAUCCCACCACAUGAUGAUGCCUGAAGUGCCUUGGUUUUUUG, the “polymerase ribozyme fitness (log ratio)” value was 2.22.
With GACCAAUCUGCCCUCAGAGCUCGAGAACAUCUUCGGAUGCAGAGGAGGCUGGCUUCGGUGGCGCGAUAGCGCCAACGUCCUCAACCUCCAAUGCAUCCCACCACAUGAUGAUGCCUGAAGAGCCUUGGUUUUUUU the “polymerase ribozyme fitness (log ratio)” value was -2.36.
For GACCAAUCUGCCCUCAGAGCUCGAGAACAUCUUCGGAUACAGAGGAGGCAGGCUUCGGUGGCGCGAUAGCGCCAACGUCCUCAAUCUCCAAUGCAUCCCACCACAUGAUGAUGCCUGAAGAGCCUUGGUUUUUUG, the “polymerase ribozyme fitness (log ratio)” value was -1.3.
For GACCAAUCUGCCCUCAGAGCUCGAGAACAUCUUCGGAUGCAGAGGAGGCAGGCUUCGGUCGCGCGAUAGCGCCAACGUCCUCAACCUCCAAUCCAUCCCACCACAUGAUGAUGCCUGAAAAGCCUCGGUUUUUUG, the “polymerase ribozyme fitness (log ratio)” value was -0.901.
For GACCAAUUUGCCCUCAGAGCUCGAGACCAUCUUCGGAUGCAGAGGAGGCAGGCUUCGGUGGCGCGAUAGCGUCAACGUCAUCAACCUCCAAUGCAUCCCACCACAUGAUGAUGCCUGAAGAGCCUUGGUUUUUUG, the “polymerase ribozyme fitness (log ratio)” value was -6.42.
With GACCAAUCUGCCCUCAGAGCUCGAGAACAUCUUCGGAUGCAGAGGAGGCAGGCUUCGUUCGCGCGAUAGCGCCAACGUCCUCAACCUCCAAUGCAUCCCACCACAUGAUGAUGCCUUAAGAGACUUGGUUUUUUG the “polymerase ribozyme fitness (log ratio)” value was -2.45.
In the case of GACCAAUCUGCCCUCAGAGCUCGAGAACAUCUUCGGAUGCAGAGGAGGCAGACUUCGGUGGCGCGAUAGCGCCAACGUCCUCAACCUCCAAUGCAUCACACCACAUGAUGAUGCCUGAAGAGCCUUGGUUUUUUG, the “polymerase ribozyme fitness (log ratio)” value is reported as -4.54.
For GACCAAUCUGCCCUCAGAGCUCGAGAACAUCUUCGGAUGCAGAGGACGCAGGCUUCGGUGGCGCGAUAGAGCCAACGUCCUCAACCUCCAAUGCAUCCCACCACAUGAUGAUGCCUGAAGAGCCUUGGUUGUUUG, the “polymerase ribozyme fitness (log ratio)” value was -4.27.
With GACCAAUCUGCCCUCAGAGCUCGAGAACAUCUUCGGUUGCAGAGGAUGCAGGCUUCGGUAGCGCGAUAGCGCCAACGUCCUCAACCUCCAAUGCAUCCCACCACAUGAUAAUGCCUGAAGAGCCUUGGUUUUUUG the “polymerase ribozyme fitness (log ratio)” value was -3.74.
With GACCAAUCUGCCCUCAGAGCUCGAGAACAUCUUCGGAUGCAGAGGAGGCAGGCUUCGGUGGCGCGAUAGUGCCAACGUCCUCAACCUCCAAUGCACCCUACUACAUGAUGAUGCCUGAAGAGCCUUGGUUUUUUG the “polymerase ribozyme fitness (log ratio)” value was -6.59.
In the case of GACCAAUCUGCCCUCAGAGCUCGAGAACAUCUUCGGUUGCAGAGGAGGCAGGCUUCGGAGGCGCGAUAGCGCCAACGUCCUCAACCUCCAAUGCAUCCCACCACAUGAUGAUGCCUGAAGAGCCUUGGUUUUUUG, the “polymerase ribozyme fitness (log ratio)” value is reported as -0.609.
In the case of GACCAAUCUGCCCUCAGAGCUCGAGAACAUCUUCGGAUGCAGAGGAGGCAGGCUUCGGUGGCGCGAUAGCGCCAACGUCCUCAACCUCCAAUGCAUCCCACCACAUGGUGAUGCCUGAAAAGCGUUGGUUGUUUG, the “polymerase ribozyme fitness (log ratio)” value is reported as -0.578.
With GACCAAUCUGCCCUCAGAGCUCGAGAACAUCUUCGGAUGCAGAGGAGGCAGUCUUCGCUGGCGCGAUAGCGCCAACGUUCUCAACCUCCAAUGCAUCCCACCACAUGAUGAUGCCUGAAGAGCCUUGGUUUUUUG the “polymerase ribozyme fitness (log ratio)” value was -0.312.
With GUCCAAUCUGCCCUCAGAGCUCGAGAACAUCUUCGGAUGCAGAGGAGGUAGGCUUCGGUGGCGCGAUAGCGCCAACGUCCUCAACCUCCAAUGCAUCCCACCACAUGAUGAUCCCUGAAGAGCCUUGGUUUUUUG the “polymerase ribozyme fitness (log ratio)” value was -5.26.
With GACCAAUCUGCCCUCAGAGCUCGAGAACAUCUUCGGUUGCAGAGGAGGCAGGCUUCCGUGGCACGAUAGCGCCAACGUCCUCAACCUCCAAUGCAUCCCACCACAUGAUGAUGCCUGAAGAGCCUUGGUUUUUUG the “polymerase ribozyme fitness (log ratio)” value was -1.29.
With GACCGAUCUGCCCUCAGAGCUCGAGAACAUCUUCGGAUGCAGAGGAGGCAGGCUUCGGUGGCGCGAUAGCGCCAACGUCCUGAACCUCCAAUGCAUACCACCACAUGAUGAUGCCUGAAGAGCAGUGGUUUUUUG the “polymerase ribozyme fitness (log ratio)” value was -4.89.
For GACCAAUCUGCCCUCAGAGAUCGAGAACAUCUUCGGAUGCAGAGGAGGCAGGAUUCGGAGGCGCGAUACCGCCAACGUCCUCAACCUCCAAUGCAUCCCACCACAUGAUGAUGCCUGAAGAGCCUUGGUUUUUUG, the “polymerase ribozyme fitness (log ratio)” value was -4.
